Data as given in JP2011160681A (dated 2011).

What was measured:
Assay in all cases: ELISA, antigen coated on the plate
[1] = target: Bovine serum albumin (bovine, UniProt P02769 25-607)
[2] = target: Human hemoglobin (human, UniProt P69905 2-142; P68871 2-147)
[3] = target: HSA (UniProt P02768 25-609)
[4] = target: HAc peptide (Influenza A virus)
[5] = target: T1, TP41-1 peptide (HIV-1)
T1 peptide: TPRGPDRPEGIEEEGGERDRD

Chain of HSA (P02768 25-609): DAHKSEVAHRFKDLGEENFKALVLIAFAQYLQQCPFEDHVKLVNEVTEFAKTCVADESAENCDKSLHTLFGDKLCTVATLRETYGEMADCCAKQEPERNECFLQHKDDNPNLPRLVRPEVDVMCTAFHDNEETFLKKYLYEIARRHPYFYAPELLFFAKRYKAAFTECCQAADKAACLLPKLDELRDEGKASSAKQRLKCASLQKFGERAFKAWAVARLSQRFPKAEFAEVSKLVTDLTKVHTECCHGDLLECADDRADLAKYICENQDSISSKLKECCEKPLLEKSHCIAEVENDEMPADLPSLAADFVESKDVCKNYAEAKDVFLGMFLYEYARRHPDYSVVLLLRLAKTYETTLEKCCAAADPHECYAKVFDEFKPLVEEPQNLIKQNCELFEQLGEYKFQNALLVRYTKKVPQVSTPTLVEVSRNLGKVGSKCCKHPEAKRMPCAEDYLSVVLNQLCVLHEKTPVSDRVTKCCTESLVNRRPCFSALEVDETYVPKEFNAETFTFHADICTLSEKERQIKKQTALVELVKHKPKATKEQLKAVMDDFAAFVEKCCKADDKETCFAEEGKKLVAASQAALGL
Chain of Human hemoglobin (P69905 2-142 limits assumed, chain 1 of 2): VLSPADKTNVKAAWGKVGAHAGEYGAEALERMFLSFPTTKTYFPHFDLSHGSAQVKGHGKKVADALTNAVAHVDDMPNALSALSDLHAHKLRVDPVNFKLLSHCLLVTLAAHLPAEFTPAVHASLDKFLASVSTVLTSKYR
Chain of Human hemoglobin (P68871 2-147 limits assumed, chain 2 of 2): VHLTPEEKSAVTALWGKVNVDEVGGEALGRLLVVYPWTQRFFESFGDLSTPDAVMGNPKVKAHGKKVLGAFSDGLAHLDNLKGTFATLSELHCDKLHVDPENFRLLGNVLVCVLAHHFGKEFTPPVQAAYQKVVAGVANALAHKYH
Chain of Bovine serum albumin (P02769 25-607 limits assumed): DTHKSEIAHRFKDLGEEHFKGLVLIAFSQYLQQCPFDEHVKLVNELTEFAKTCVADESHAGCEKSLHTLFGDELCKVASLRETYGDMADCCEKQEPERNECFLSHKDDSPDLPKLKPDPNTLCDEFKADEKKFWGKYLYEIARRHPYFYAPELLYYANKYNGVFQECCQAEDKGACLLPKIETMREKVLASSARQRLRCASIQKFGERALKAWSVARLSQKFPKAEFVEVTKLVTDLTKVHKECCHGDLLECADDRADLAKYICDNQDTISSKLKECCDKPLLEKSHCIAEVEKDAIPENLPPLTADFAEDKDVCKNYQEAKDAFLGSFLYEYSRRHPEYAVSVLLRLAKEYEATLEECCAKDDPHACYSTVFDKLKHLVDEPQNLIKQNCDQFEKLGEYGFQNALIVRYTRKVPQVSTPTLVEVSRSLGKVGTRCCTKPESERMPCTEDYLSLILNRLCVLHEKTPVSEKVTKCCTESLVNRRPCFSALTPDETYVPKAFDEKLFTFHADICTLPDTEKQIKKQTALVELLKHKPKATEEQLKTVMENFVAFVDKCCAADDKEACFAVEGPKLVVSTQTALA

B1: InfA-15 monoclonal antibody (antibody, V domains shown)
VH: QVQLKESGPGLVAPSQSLSITCTVSGFSLTKSGLHWVRQPPGKGLEWLGVIWAGGSTDYNSALTSRLTITKDNSKSQIFFRLNSLQTADTAMYYCVRSTFLYAMDFWGQGTSVTVS
VL: DAVMTQTPLSLPVSLGDQASISCRSSPSLEHSNGNTYLNWYLQKPGQSPQLLIYRVSNRFSGVPDRFSGSGSGTDFTLKISRVEAEDLGVYFCLQVTHVPPTFGGGTKLEIKR
binding result [1]: no binding (tested: 4 μg/ml (coated antigen))
binding result [2]: no binding (tested: 4 μg/ml (coated antigen))
binding result [3]: no binding (tested: 4 μg/ml (coated antigen))
binding result [4]: no binding (tested: 4 μg/ml (coated antigen))
binding result [5]: no binding (tested: 4 μg/ml (coated antigen))
